Measured values published in the supplement of paper PMC10065799, “High-throughput profiling of sequence recognition by tyrosine kinases and SH2 domains using bacterial peptide display” (eLife, 2023).

Key:
SHP2-C SH2 = assay: SH2 binding enrichment of the phosphorylated peptide, bacterial display (enrichment ratio); higher = better substrate or ligand; peptides without Tyr show the background
Grb2 SH2 = Grb2 SH2 (UniProt P62993); assay: as above
c-Src SH2 = assay: as above
EPHB1 = EPHB1 (UniProt P54762); assay: phosphorylation enrichment, bacterial display (enrichment ratio); higher = better substrate or ligand; peptides without Tyr show the background
Fes = Fes (UniProt P07332); assay: as above
Fyn = Fyn (UniProt P06241); assay: as above
Jak2 = Jak2 (UniProt O60674); assay: as above
Hck = Hck (UniProt P08631); assay: as above
AncSZ = assay: as above
MERTK = MERTK (UniProt Q12866); assay: as above
c-Abl (mouse) = assay: as above
c-Src = assay: as above
FGFR1 = FGFR1 (UniProt P11362); assay: as above
EPHB2 = EPHB2 (UniProt P29323); assay: as above
FGFR3 = FGFR3 (UniProt P22607); assay: as above
Fer (mouse) = assay: as above
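Wherever SH2 binding enrichment of the phosphorylated peptide, bacterial display is given: peptide library displayed on the E. coli surface as eCPX fusions, selected cells deep-sequenced, score is each peptide's frequency after selection divided by its frequency in the input.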
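Wherever phosphorylation enrichment, bacterial display is given: 11-residue human phosphosite peptides and single-mutation variants displayed on the E. coli surface, counted by deep sequencing, each peptide's frequency after selection divided by its frequency in the unselected input library; frequency after pTyr selection over input frequency; kinase dosed for 20-30% of maximal phosphorylation in three min.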

FGFR1, sequence (P11362 whole entry, looked up): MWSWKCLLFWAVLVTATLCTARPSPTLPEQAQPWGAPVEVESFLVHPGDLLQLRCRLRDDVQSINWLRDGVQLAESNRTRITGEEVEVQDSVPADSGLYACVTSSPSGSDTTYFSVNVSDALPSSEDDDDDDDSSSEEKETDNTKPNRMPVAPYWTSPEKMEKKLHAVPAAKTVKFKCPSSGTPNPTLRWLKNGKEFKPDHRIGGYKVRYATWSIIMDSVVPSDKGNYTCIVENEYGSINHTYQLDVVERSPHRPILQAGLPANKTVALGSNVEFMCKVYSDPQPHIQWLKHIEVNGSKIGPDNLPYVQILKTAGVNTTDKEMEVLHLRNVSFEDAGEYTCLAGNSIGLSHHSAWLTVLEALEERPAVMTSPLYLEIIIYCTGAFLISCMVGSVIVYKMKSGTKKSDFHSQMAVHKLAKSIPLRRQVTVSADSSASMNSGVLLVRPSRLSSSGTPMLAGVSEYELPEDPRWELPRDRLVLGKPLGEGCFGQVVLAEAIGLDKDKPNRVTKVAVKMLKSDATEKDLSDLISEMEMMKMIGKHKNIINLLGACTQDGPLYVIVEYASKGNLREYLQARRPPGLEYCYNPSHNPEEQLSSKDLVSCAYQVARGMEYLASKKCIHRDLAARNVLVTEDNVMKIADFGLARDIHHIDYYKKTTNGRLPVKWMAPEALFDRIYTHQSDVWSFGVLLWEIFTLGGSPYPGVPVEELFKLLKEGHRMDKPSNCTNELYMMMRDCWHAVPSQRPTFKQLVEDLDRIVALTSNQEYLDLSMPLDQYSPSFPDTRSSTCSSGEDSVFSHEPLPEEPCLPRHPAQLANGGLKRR
EPHB2, sequence (P29323 whole entry, looked up): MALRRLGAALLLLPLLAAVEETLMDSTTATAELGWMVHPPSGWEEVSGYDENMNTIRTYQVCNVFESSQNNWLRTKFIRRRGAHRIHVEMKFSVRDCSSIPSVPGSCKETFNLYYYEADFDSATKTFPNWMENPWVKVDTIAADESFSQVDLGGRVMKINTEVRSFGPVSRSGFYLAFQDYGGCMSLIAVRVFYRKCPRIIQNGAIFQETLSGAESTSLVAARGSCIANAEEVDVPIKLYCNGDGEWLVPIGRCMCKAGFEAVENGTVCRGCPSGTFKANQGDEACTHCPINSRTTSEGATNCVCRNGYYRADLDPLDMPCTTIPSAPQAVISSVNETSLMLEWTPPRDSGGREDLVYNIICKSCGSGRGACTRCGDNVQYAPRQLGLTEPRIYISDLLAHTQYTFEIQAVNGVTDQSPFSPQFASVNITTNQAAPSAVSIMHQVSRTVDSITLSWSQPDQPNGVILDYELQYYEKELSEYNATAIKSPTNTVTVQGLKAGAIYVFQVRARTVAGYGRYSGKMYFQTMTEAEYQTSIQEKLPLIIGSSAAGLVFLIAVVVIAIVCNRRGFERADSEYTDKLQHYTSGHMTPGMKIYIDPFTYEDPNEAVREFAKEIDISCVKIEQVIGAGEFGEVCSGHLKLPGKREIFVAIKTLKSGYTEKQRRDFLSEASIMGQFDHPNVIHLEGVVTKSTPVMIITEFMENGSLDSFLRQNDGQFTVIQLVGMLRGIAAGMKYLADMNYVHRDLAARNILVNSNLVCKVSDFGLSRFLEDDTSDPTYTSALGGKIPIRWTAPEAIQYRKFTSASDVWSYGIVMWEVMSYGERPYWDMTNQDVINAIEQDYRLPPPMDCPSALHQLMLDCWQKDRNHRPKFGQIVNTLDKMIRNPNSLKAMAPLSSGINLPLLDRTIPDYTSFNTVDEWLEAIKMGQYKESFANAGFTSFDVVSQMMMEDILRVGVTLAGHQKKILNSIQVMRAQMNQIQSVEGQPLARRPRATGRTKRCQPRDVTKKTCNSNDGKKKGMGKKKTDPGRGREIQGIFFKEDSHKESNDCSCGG
Fes, sequence (P07332 whole entry, looked up): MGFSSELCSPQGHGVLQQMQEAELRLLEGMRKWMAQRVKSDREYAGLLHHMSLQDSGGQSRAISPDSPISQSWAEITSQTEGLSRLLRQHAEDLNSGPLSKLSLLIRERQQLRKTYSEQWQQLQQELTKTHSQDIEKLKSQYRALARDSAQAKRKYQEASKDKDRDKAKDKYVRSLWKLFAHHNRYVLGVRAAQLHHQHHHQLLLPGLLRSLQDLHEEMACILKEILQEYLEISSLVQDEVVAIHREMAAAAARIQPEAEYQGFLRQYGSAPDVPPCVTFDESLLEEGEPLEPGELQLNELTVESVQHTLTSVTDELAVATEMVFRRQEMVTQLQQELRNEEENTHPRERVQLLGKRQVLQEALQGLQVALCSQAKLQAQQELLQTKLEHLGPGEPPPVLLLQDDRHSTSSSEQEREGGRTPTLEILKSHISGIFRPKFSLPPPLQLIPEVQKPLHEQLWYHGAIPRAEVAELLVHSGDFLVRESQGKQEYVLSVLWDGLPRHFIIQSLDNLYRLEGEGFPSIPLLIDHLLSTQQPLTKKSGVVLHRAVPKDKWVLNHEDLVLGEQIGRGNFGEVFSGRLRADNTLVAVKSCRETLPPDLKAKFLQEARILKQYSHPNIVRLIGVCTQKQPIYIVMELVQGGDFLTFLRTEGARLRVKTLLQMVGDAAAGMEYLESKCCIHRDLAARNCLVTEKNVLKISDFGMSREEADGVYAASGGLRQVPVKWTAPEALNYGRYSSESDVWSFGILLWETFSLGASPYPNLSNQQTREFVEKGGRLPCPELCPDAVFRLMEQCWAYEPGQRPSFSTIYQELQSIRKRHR
FGFR3, sequence (P22607 whole entry, looked up): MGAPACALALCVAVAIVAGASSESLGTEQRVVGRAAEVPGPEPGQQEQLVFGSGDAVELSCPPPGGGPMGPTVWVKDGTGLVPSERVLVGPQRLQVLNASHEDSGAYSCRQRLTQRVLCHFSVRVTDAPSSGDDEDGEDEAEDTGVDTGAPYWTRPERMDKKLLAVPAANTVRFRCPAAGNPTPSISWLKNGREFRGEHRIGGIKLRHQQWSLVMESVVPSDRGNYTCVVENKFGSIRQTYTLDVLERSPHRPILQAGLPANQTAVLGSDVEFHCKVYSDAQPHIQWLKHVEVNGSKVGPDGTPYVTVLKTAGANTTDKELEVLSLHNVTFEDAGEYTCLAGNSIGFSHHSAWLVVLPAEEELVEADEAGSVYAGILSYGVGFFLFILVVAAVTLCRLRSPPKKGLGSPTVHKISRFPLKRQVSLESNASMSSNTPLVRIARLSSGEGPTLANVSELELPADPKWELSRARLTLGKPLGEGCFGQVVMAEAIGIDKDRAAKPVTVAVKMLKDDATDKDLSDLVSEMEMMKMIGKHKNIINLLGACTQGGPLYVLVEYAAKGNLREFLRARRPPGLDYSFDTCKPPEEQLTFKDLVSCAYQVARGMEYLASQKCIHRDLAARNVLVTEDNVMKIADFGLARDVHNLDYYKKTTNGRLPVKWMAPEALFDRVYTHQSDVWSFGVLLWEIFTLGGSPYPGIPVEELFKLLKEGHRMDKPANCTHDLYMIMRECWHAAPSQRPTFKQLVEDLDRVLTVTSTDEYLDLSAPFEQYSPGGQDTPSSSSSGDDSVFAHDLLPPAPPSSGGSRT
Jak2, sequence (O60674 whole entry, looked up): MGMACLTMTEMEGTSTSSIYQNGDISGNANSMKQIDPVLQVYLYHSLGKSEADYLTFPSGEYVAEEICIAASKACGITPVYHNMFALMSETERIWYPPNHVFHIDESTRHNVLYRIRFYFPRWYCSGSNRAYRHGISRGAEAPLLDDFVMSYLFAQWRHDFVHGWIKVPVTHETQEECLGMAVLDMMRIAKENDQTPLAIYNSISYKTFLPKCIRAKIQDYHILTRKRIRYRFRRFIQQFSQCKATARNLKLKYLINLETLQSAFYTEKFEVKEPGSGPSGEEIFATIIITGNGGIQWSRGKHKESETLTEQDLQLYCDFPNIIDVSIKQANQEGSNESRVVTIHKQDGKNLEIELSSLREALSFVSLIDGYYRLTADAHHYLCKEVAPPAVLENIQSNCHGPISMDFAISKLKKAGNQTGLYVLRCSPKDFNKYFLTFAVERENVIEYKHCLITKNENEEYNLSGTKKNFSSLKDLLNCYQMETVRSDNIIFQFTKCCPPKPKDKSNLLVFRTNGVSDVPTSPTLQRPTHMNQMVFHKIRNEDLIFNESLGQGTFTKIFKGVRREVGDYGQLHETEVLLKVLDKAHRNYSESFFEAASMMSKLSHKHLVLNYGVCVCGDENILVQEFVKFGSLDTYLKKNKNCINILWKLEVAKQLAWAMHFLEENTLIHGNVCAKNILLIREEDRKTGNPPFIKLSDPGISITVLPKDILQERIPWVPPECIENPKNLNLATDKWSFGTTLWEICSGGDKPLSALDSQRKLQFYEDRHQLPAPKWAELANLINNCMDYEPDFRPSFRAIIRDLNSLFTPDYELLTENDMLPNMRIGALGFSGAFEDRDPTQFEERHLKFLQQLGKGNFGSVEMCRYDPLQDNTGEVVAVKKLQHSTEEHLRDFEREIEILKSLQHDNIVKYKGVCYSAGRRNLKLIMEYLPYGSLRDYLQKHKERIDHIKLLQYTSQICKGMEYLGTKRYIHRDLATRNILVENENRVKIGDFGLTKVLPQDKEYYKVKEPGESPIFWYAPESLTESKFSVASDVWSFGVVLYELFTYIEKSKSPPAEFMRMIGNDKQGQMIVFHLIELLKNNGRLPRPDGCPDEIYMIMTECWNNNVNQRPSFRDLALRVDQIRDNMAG
Grb2 SH2, sequence (P62993 whole entry, looked up): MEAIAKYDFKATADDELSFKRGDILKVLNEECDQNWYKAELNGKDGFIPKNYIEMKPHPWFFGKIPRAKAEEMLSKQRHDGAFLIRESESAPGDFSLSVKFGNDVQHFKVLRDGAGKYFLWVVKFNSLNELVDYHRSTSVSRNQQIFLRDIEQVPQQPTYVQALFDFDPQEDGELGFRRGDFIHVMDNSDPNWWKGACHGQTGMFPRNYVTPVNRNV

Sequence | SH2 binding enrichment (SHP2-C SH2) | SH2 binding enrichment (Grb2 SH2) | SH2 binding enrichment (c-Src SH2) | phosphorylation enrichment (EPHB1) | phosphorylation enrichment (Fes) | phosphorylation enrichment (Fyn) | phosphorylation enrichment (Jak2) | phosphorylation enrichment (Hck) | phosphorylation enrichment (AncSZ) | phosphorylation enrichment (MERTK) | phosphorylation enrichment (c-Abl (mouse)) | phosphorylation enrichment (c-Src) | phosphorylation enrichment (FGFR1) | phosphorylation enrichment (EPHB2) | phosphorylation enrichment (FGFR3) | phosphorylation enrichment (Fer (mouse))
GEAEQYVGGGG [FAT4_Y4980] | 0.584 | 1.16 | 0.464 | 0.394 | 0.87 | 0.465 | 0.746 | 0.44 | 0.842 | 0.371 | 0.584 | 0.327 | 0.543 | 0.414 | 0.687 | 0.448
EESREYDRLFE [PIK3R1_Y463_K459E_YF] | 0.473 | 0.829 | 6.69 | 0.489 | 1.49 | 0.493 | 1.48 | 0.657 | 1.46 | 0.546 | 1.07 | 0.654 | 0.609 | 0.681 | 0.762 | 0.599
DDKQPYEKKAA [HMGB1_Y144] | 0.741 | 0.964 | 0.606 | 0.585 | 0.947 | 0.518 | 0.851 | 0.536 | 0.988 | 0.415 | 0.539 | 0.436 | 0.493 | 0.464 | 0.629 | 0.475
DVLVEYQEEGR [GNS_Y416_G418E] | 0.696 | 0.894 | 0.505 | 0.634 | 1.21 | 0.593 | 1.05 | 0.661 | 1.32 | 0.51 | 0.642 | 0.496 | 0.59 | 0.617 | 0.884 | 0.578
VDHFGYTKDDK [APOB_Y740] | 0.95 | 0.819 | 0.592 | 0.388 | 0.764 | 0.369 | 0.762 | 0.463 | 0.709 | 0.395 | 0.67 | 0.393 | 0.497 | 0.327 | 0.498 | 0.408
PLQDVYKIGGI [EEF1A2_Y254] | 0.574 | 1.03 | 0.429 | 2.02 | 0.981 | 2.3 | 1 | 1.04 | 1.01 | 0.522 | 1.92 | 4.34 | 0.505 | 0.572 | 0.793 | 0.679
KKHIPCREHKS [CSNK1G2_Y206_Y206C] | 1.62 | 1.6 | 1.68 | 1.6 | 2.35 | 0.667 | 3.46 | 0.876 | 1.76 | 0.713 | 2.79 | 0.832 | 1.13 | 0.962 | 3.13 | 1.66
KNCFKYYMSDD [ATRX_Y203] | 0.785 | 0.828 | 0.835 | 0.794 | 1.37 | 0.54 | 1.16 | 0.595 | 1.4 | 0.496 | 0.961 | 0.572 | 0.547 | 0.701 | 1.01 | 0.624
